We go through six sequences from the supplement of paper PMC11246515.

This data set can be described thus: total protein half-life in vivo (active degradation + dilution); higher = more stable protein.
[1] abbreviates: E. coli NCM3722 delta-clpP delta-lon delta-hslV, growth: N-lim chemostat, doubling time 6 h.
The mark [2] stands for this setting: E. coli NCM3722 delta-clpP, growth: N-lim chemostat, doubling time 6 h.
[3] abbreviates: E. coli NCM3722 delta-hslV, growth: N-lim chemostat, doubling time 6 h.
[4] abbreviates: E. coli NCM3722 delta-lon, growth: N-lim chemostat, doubling time 6 h.
Where [5] appears, read: E. coli NCM3722 delta-smpB, growth: N-lim chemostat, doubling time 6 h.
Setting [6] is: wild type E. coli NCM3722, growth: C-lim chemostat, doubling time 3 h.
Setting [7] is: wild type E. coli NCM3722, growth: C-lim chemostat, doubling time 6 h.
Setting [8] is: wild type E. coli NCM3722, growth: C-lim chemostat, doubling time 12 h.
Setting [9] is: wild type E. coli NCM3722, growth: N-lim chemostat, doubling time 6 h.
[10] abbreviates: wild type E. coli NCM3722, growth: N-lim chemostat, doubling time 12 h.
The mark [11] stands for this setting: wild type E. coli NCM3722, growth: P-lim chemostat, doubling time 6 h.
The mark [12] stands for this setting: wild type E. coli NCM3722, growth: P-lim chemostat, doubling time 12 h.

± gives the standard deviation of the averaged measurements.

With “MKCSWREGNKIQLLENGEQYYPAVFKAIGEAQERIILETFIWFEDDVGKQLHAALLAAAQRGVKAEVLLDGYGSPDLSDEFVNELTAAGVVFRYYDPRPRLFGMRTNVFRRMHRKIVVIDARIAFIGGLNYSAEHMSSYGPEAKQDYAVRLEGPIVEDILQFELENLPGQSAARRWWRRHHKAEENRQPGEAQVLLVWRDNEEHRDDIERHYLKMLTQARREVIIANAYFFPGYRFLHALRKAARRGVRIKLIIQGEPDMPIVRVGARLLYNYLVKGGVQVFEYRRRPLHGKVALMDDHWATVGSSNLDPLSLSLNLEANVIIHDRHFNQTLRDNLNGIIAADCQQVDETMLPKRTWWNLTKSVLAFHFLRHFPALVGWLPAHTPRLAQVDPPAQPTMETQDRVETENTGVKP [P0AA84]”, the “total protein half-life in vivo” value under setting [1] amounted to 5.09 ± 0.17 h; the “total protein half-life in vivo” value under setting [2] was found to be 4.47 ± 0.2 h; the “total protein half-life in vivo” value under setting [3] turned out to be 3.731 ± 0.026 h; the “total protein half-life in vivo” value under setting [4] worked out at 4.02 ± 0.65 h; the “total protein half-life in vivo” value under setting [5] came to 3.99 ± 0.16 h; the “total protein half-life in vivo” value under setting [6] was determined as 2.78 ± 0.092 h. Further, the “total protein half-life in vivo” value runs as follows: under setting [7], 5.37 ± 2.1 h; under setting [8], 5.9 ± 1.9 h; under setting [9], 3.75 ± 0.25 h; under setting [10], 6.19 ± 0.53 h; under setting [11], 5.17 ± 1.5 h; under setting [12], 9.94 ± 4.7 h.
As for “MSEPMMWLLVRGVWETLAMTFVSGFFGFVIGLPVGVLLYVTRPGQIIANAKLYRTVSAIVNIFRSIPFIILLVWMIPFTRVIVGTSIGLQAAIVPLTVGAAPFIARMVENALLEIPTGLIEASRAMGATPMQIVRKVLLPEALPGLVNAATITLITLVGYSAMGGAVGAGGLGQIGYQYGYIGYNATVMNTVLVLLVILVYLIQFAGDRIVRAVTRK”, the “total protein half-life in vivo” value runs as follows: under setting [1], 6.59 h; under setting [2], 6.5 h; under setting [3], 6.24 h; under setting [4], 5.881 ± 0.054 h; under setting [5], 5.76 ± 0.38 h; under setting [6], 3.25 ± 0.28 h. The “total protein half-life in vivo” value runs as follows: under setting [7], 6.38 h; under setting [8], 11.6 h; under setting [9], 6.095 ± 0.06 h; under setting [10], 11.6 ± 1.8 h; under setting [11], 6.63 ± 0.78 h.
Regarding “MTHIRIEKGTGGWGGPLELKATPGKKIVYITAGTRPAIVDKLAQLTGWQAIDGFKEGEPAEAEIGVAVIDCGGTLRCGIYPKRRIPTINIHSTGKSGPLAQYIVEDIYVSGVKEENITVVGDATPQPSSVGRDYDTSKKITEQSDGLLAKVGMGMGSTVAVLFQSGRDTIDTVLKTILPFMAFVSALIGIIMASGLGDWIAHGLAPLASHPLGLVMLALICSFPLLSPFLGPGAVIAQVIGVLIGVQIGLGNIPPHLALPALFAINAQAACDFIPVGLSLAEARQDTVRVGVPSVLVSRFLTGAPTVLIAWFVSGFIYQ”, the “total protein half-life in vivo” value under setting [2] came to 5.44 h; the “total protein half-life in vivo” value under setting [4] is 5.5 h; the “total protein half-life in vivo” value under setting [6] stood at 2.06 ± 0.099 h; the “total protein half-life in vivo” value under setting [7] came to 4.93 h; the “total protein half-life in vivo” value under setting [9] worked out at 4.5 h.
Turning to “MKKGFMLFTLLAAFSGFAQADDAAIQQTLAKMGIKSSDIQPAPVAGMKTVLTNSGVLYITDDGKHIIQGPMYDVSGTAPVNVTNKMLLKQLNALEKEMIVYKAPQEKHVITVFTDITCGYCHKLHEQMADYNALGITVRYLAFPRQGLDSDAEKEMKAIWCAKDKNKAFDDVMAGKSVAPASCDVDIADHYALGVQLGVSGTPAVVLSNGTLVPGYQPPKEMKEFLDEHQKMTSGK [P0AEG6]”, the “total protein half-life in vivo” value by setting is: under setting [1], 5.41 ± 0.26 h; under setting [2], 5.77 ± 0.5 h; under setting [3], 6.69 ± 0.64 h; under setting [4], 6.3 ± 0.28 h; under setting [5], 6.38 ± 0.49 h; under setting [6], 3.31 ± 0.52 h. Further, the “total protein half-life in vivo” value under setting [7] worked out at 5.7 ± 0.21 h; the “total protein half-life in vivo” value under setting [8] amounted to 10.8 ± 1.6 h; the “total protein half-life in vivo” value under setting [9] is 5.8 ± 0.27 h; the “total protein half-life in vivo” value under setting [10] worked out at 13.1 ± 2 h; the “total protein half-life in vivo” value under setting [11] came to 5.93 ± 1.2 h; the “total protein half-life in vivo” value under setting [12] was 13.2 ± 0.74 h.
For the sequence “MTTDQHQEILRTEGLSKFFPGVKALDNVDFSLRRGEIMALLGENGAGKSTLIKALTGVYHADRGTIWLEGQAISPKNTAHAQQLGIGTVYQEVNLLPNMSVADNLFIGREPKRFGLLRRKEMEKRATELMASYGFSLDVREPLNRFSVAMQQIVAICRAIDLSAKVLILDEPTASLDTQEVELLFDLMRQLRDRGVSLIFVTHFLDQVYQVSDRITVLRNGSFVGCRETCELPQIELVKMMLGRELDTHALQRAGRTLLSDKPVAAFKNYGKKGTIAPFDLEVRPGEIVGLAGLLGSGRTETAEVIFGIKPADSGTALIKGKPQNLRSPHQASVLGIGFCPEDRKTDGIIAAASVRENIILALQAQRGWLRPISRKEQQEIAERFIRQLGIRTPSTEQPIEFLSGGNQQKVLLSRWLLTRPQFLILDEPTRGIDVGAHAEIIRLIETLCADGLALLVISSELEELVGYADRVIIMRDRKQVAEIPLAELSVPAIMNAIAA [Q6BEX0]”, the “total protein half-life in vivo” value was found to be 4.28 h under setting [1]; 6.33 ± 1.2 h under setting [2]; 4.45 h under setting [3]; 5.51 h under setting [5]; 3 ± 0.35 h under setting [6]; 6.5 ± 0.63 h under setting [7]. Moreover, the “total protein half-life in vivo” value under setting [8] worked out at 10.7 ± 0.33 h, the “total protein half-life in vivo” value under setting [10] is 9.4 h, the “total protein half-life in vivo” value under setting [11] amounted to 5.93 ± 0.44 h and the “total protein half-life in vivo” value under setting [12] came to 11 ± 1.1 h.
Turning to “MNDSEFHRLADQLWLTIEERLDDWDGDSDIDCEINGGVLTITFENGSKIIINRQEPLHQVWLATKQGGYHFDLKGDEWICDRSGETFWDLLEQAATQQAGETVSFR”, the “total protein half-life in vivo” value worked out at 5.94 ± 0.86 h under setting [1]; 6.07 h under setting [2]; 5.73 ± 0.14 h under setting [3]; 5.77 ± 0.51 h under setting [4]; 4.57 ± 1.3 h under setting [5]; 2.95 ± 0.78 h under setting [6]. Further, the “total protein half-life in vivo” value under setting [7] came to 5.61 ± 1.6 h; the “total protein half-life in vivo” value under setting [8] was determined as 9.5 h; the “total protein half-life in vivo” value under setting [9] is 5.34 ± 0.45 h; the “total protein half-life in vivo” value under setting [10] amounted to 9.68 ± 0.16 h; the “total protein half-life in vivo” value under setting [11] is 5.67 ± 0.12 h; the “total protein half-life in vivo” value under setting [12] is 11 ± 0.23 h.
